Reference: US11224246B2, “Mineral fortification process and its uses” (SOCIETE DES PRODUITS NESTLE S.A., priority 2012, dated 2022)

Legend:
Format in all cases: physicochemical
[1] = Zinc sulphate addition to sodium caseinate solution, precipitation of proteins; conditions: 2% protein solution, pH 6.8
Protocol: We have compared the effect of zinc sulphate addition on the precipitation of proteins in sodium caseinate using our technology.
Upon addition of zinc sulphate to sodium caseinate solution (2% protein), not more than 5 mM of zinc could be added without gross precipitation of proteins at pH 6.8.
However, as exemplified with the concept of complex II, we could add 18 mM of zinc to the sodium caseinate (2% protein solution) without any precipitation of proteins.

[2] = Copper sulphate addition to sodium caseinate solution, precipitation; conditions: 2% protein
Protocol: The sodium caseinate solution (2% protein) precipitated upon addition of 1.5 mM copper as copper sulphate. Again using the concept of complex II, we could add 4 mM without noticeable precipitation at pH 6.8.

[3] = Effect of phosphorus addition on soluble protein, soluble iron, turbidity and appearance of sodium caseinate solution on iron addition; conditions: without the phosphorus, FIGS. 6 and 7
Protocol: FIGS. 3 to 5 illustrate the effect of adding phosphorus to the complex.
FIG. 5 illustrates the advantages of the invention, wherein an increase in turbidity indicates a reduction in stability due to the formation of small particulates/precipitates.
FIGS. 6 and 7 visually illustrate how addition of phosphorus improves the solubility and stability of the complex. Even when the iron is loaded up to 25 mM, the composition remains in solution. Without the phosphorus, the protein and/or iron precipitates even at lower levels of iron (5-10 mM).

In the case of sodium caseinate, the “Zinc that could be added without precipitation of proteins” value [1] is reported as “not more than 5 mM”, the “Copper addition at which the solution precipitated” value [2] is reported as 1.5 mM and the “Iron level at which protein and/or iron precipitates” value [3] is reported as 5 to 10 mM.
